Experimental data: US20140087995A1 (published 2014)
Numbered stars: 1 amine (or outer) side, 2 acyl side, 3 side chain; on linkers, the order of the positions; unused ones are H or OH. Bridge positions count the residues as written; N and C are the ends. Side chains are listed from the residue outwards. Ends that are not written are not given here. * marks the point of attachment. C20 diacid = O=C(O)CCCCCCCCCCCCCCCCCCC(=O)*; γGlu = O=C(O)[C@H](CCC(=O)[*:2])N[*:1]; AEEA = NCCOCCOCC(=O)O

Key:
[1] = biological target: T1, human calcitonin receptor (human, UniProt P30988 25-474); test: cell-based or functional assay
T1 sequence (looked up): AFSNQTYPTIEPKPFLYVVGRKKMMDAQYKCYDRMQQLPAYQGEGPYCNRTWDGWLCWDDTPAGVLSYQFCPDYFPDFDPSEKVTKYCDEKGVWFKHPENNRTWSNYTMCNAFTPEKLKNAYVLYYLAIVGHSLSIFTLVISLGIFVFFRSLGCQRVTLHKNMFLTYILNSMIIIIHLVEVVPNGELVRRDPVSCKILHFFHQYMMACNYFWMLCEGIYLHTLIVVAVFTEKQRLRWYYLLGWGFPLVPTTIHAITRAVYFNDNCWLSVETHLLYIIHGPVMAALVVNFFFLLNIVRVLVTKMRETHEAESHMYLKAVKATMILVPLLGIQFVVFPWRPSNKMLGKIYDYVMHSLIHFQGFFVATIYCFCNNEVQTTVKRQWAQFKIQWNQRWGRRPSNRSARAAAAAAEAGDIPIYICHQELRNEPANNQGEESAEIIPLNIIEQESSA

[2] = biological target: T2, human amylin receptor (amylin 3(a) receptor: human calcitonin receptor plus RAMP-3) (human, UniProt P30988 25-474; O60896 24-148, limits assumed); test: cell-based or functional assay
T2 sequence (looked up) 1: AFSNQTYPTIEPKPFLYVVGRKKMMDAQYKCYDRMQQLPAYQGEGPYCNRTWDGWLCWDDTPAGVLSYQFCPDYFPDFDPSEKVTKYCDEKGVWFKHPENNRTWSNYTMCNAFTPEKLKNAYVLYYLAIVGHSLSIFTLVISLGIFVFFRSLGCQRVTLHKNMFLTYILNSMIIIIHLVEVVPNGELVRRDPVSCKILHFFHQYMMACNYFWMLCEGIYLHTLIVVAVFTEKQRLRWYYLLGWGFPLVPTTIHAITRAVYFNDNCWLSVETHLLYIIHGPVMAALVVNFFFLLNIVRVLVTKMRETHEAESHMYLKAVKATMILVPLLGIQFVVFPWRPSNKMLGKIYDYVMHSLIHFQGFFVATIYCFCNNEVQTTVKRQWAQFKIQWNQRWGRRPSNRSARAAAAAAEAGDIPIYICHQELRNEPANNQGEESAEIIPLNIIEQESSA
T2 sequence (looked up) 2: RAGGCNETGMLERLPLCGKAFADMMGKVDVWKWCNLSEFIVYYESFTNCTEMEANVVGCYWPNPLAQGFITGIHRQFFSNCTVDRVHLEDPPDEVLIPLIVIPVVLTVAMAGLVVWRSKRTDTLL

B1: N^ε-[2-[2-[2-[[(4S)-4-carboxy-4-(19-carboxynonadecanoylamino)butanoyl]amino]ethoxy]ethoxy]acetyl]Lys[Arg1,Arg17,Pro21,Pro27,His35]-h-amylin (peptide)
peptide: K([AEEA-γGlu-C20 diacid])RCNTATCATQRLANFLRHSSPNFGAIPSSTNVGSHTY-NH2
modifications: disulfide 3-8; N-terminus assumed
SMILES: CC[C@H](C)[C@H](NC(=O)[C@H](C)NC(=O)CNC(=O)[C@H](Cc1ccccc1)NC(=O)[C@H](CC(N)=O)NC(=O)[C@@H]1CCCN1C(=O)[C@H](CO)NC(=O)[C@H](CO)NC(=O)[C@H](Cc1c[nH]cn1)NC(=O)[C@H](CCCNC(=N)N)NC(=O)[C@H](CC(C)C)NC(=O)[C@H](Cc1ccccc1)NC(=O)[C@H](CC(N)=O)NC(=O)[C@H](C)NC(=O)[C@H](CC(C)C)NC(=O)[C@H](CCCNC(=N)N)NC(=O)[C@H](CCC(N)=O)NC(=O)[C@@H](NC(=O)[C@H](C)NC(=O)[C@@H]1CSSC[C@H](NC(=O)[C@H](CCCNC(=N)N)NC(=O)[C@@H](N)CCCCNC(=O)COCCOCCNC(=O)CC[C@H](NC(=O)CCCCCCCCCCCCCCCCCCC(=O)O)C(=O)O)C(=O)N[C@@H](CC(N)=O)C(=O)N[C@@H]([C@@H](C)O)C(=O)N[C@@H](C)C(=O)N[C@@H]([C@@H](C)O)C(=O)N1)[C@@H](C)O)C(=O)N1CCC[C@H]1C(=O)N[C@@H](CO)C(=O)N[C@@H](CO)C(=O)N[C@H](C(=O)N[C@@H](CC(N)=O)C(=O)N[C@H](C(=O)NCC(=O)N[C@@H](CO)C(=O)N[C@@H](Cc1c[nH]cn1)C(=O)N[C@H](C(=O)N[C@@H](Cc1ccc(O)cc1)C(N)=O)[C@@H](C)O)C(C)C)[C@@H](C)O
notes: also called compound 45
Ratio hCT/hAmylin funct. (hCTR EC50 against hAmylin-R EC50) [1]: 17 | hCTR funct. EC50 [1]: 10.1 nM | hAmylin-R funct. EC50 [2]: 0.594 nM
